One assay has as its target KLK5 (UniProt Q9Y337 67-293, limits assumed). Kind of assay: cell-based or functional assay.
The target in assay [1] is human FcRn (AcrobioSystems; Catalog No: FCM-H5286) (human) (UniProt P55899). Kind of assay: SPR Biacore 8K, antibody coupled to CM5 chip, human FcRn as analyte, pH 6.0, steady state affinity fit.
Assay [2] has as its target T1, human FcRn (AcrobioSystems; Catalog No: FCM-H5286) (human, UniProt P55899 24-297; P61769 21-119).
T1 construct: Bought protein
The experiment in a line: SPR Biacore 8K, polypeptide coupled to CM5 chip, human FcRn as analyte, pH 6.0, steady state affinity fit.

For another assay, the target named is T2, rhKLK14 (human, UniProt Q9P0G3 25-251).
T2 sequence (looked up): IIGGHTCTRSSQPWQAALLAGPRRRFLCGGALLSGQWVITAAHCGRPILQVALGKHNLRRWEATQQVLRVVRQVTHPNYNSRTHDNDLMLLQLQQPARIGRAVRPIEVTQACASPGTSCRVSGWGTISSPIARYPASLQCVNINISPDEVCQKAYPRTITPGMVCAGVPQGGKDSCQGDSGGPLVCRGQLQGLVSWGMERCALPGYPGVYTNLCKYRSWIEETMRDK
The experiment in a line: cell-based or functional assay.

The next assay concerns the target rhKLK7 (human, UniProt P49862 30-253). Kind of assay: cell-based or functional assay.
The target of assay [3] is T3, recombinant human KLK5 C-6His (Novoprotein, Catalog No. C415) (human, UniProt Q9Y337 23-293).
T3 construct: Bought protein; also called KLK5 protein (Novoprotein); not shown: C-terminal 6xHis tag ('C-6His')
Kind of assay: ELISA on captured KLK5 C-6His; binder incubated in human serum, day 1.

The target of assay [4] is T3, recombinant human KLK5 C-6His …. The experiment in a line: ELISA on captured KLK5 C-6His; binder incubated in human serum, day 14.
Assay [5] has the same target. The experiment in a line: ELISA on captured KLK5 C-6His; binder incubated in human serum, day 0.
The target is the same in assay [6]. Kind of assay: ELISA on captured KLK5 C-6His; binder incubated in human serum, day 7.
Assay [7] shares this target. The experiment in a line: ELISA on captured KLK5 C-6His; binder incubated in human serum, day 4.
Assay [8] has the same target. The experiment in a line: SPR Biacore T200, polypeptide captured by anti-human IgG Fc, KLK5 as analyte, pH 7.4, steady state affinity fit.
For assay [9] the target is unchanged. Kind of assay: ELISA, KLK5 C-6His captured by anti-His mAb; binder incubated in human serum, day 1.
For assay [10] the target is unchanged. Kind of assay: ELISA, KLK5 C-6His captured by anti-His mAb; binder incubated in human serum, day 7.
For assay [11] the target is unchanged. The experiment in a line: ELISA, KLK5 C-6His captured by anti-His mAb; binder incubated in human serum, day 14.
For assay [12] the target is unchanged. Kind of assay: ELISA, KLK5 C-6His captured by anti-His mAb; binder incubated in human serum, day 0.
Assay [13] shares this target. The experiment in a line: ELISA, KLK5 C-6His captured by anti-His mAb; binder incubated in human serum, day 4.

Positions count from the first letter of the chain named. Numbers in names are those of the source.

T1 sequence (P55899 24-297 limits assumed, chain 1 of 2): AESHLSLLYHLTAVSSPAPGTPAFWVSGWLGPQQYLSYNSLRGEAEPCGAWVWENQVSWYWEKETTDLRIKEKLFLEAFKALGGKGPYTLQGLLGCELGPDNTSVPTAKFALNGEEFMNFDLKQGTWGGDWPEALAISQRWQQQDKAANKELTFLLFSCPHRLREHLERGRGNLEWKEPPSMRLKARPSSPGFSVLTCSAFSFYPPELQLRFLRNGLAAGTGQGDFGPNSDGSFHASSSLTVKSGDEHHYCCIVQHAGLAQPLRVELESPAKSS
T1 sequence (P61769 21-119 limits assumed, chain 2 of 2): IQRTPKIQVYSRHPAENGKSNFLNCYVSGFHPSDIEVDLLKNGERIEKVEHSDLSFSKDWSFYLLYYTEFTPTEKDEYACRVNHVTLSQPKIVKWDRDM
rhKLK7, sequence (P49862 30-253): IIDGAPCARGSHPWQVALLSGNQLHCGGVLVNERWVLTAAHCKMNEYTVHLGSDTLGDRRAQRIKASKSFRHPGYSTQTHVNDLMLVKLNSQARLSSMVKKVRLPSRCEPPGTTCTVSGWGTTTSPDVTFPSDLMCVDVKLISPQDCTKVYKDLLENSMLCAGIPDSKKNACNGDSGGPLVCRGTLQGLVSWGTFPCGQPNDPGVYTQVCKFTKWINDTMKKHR
human FcRn (AcrobioSystems; Catalog No: FCM-H5286) (human), sequence (P55899 24-297 limits assumed, chain 1 of 2): as the sequence (P55899 24-297 limits assumed, chain 1 of 2) above
human FcRn (AcrobioSystems; Catalog No: FCM-H5286) (human), sequence (P61769 21-119 limits assumed, chain 2 of 2, further chain): as the sequence (P61769 21-119 limits assumed, chain 2 of 2) above

In the assay with KLK5, Wild Type Spink9 (SEQ ID NO: 2) registered an IC50 of KLK5 enzymatic activity, pH 5.5 of 685 nM and an IC50 of KLK5 enzymatic activity, pH 7.5 of 80 nM.

Regarding Rituximab (Roche) (antibody), the Kd in assay [1] came out at 3100 nM.

B1: Spink9-112.K62G.Fc (SEQ ID NO: 56) (Fc fusion)
chain: IECAKQTKQMVDCSHYKKLPPEQELYCTREYDPICGSDGKTYGNDCFFCSKVKKTDGTLKFVHFGKCEPKSCDKTHTCPPCPAPEAAGGPSVFLFPPKPKDTLMISRTPEVTCVVVDVSHEDPEVKFNWYVDGVEVHNAKTKPREEQYNSTYRVVSVLTVLHQDWLNGKEYKCKVSNKALPAPIEKTISKAKGQPREPQVYTLPPSREEMTKNQVSLTCLVKGFYPSDIAVEWESNGQPENNYKTTPPVLDSDGSFFLYSKLTVDKSRWQQGNVFSCSVLHEALHSHYTQKSLSLSPGK
notes: Mutant SPINK9 domain fused directly to a C-terminal IgG Fc
In [2], B1 showed an equilibrium dissociation constant (Kd) of 233 nM. Also, the “KLK14 IC50 (nM) pH 8.0 (enzymatic activity)” value in the assay with rhKLK14 stood at 246 nM. Also, the “KLK7 IC50 (nM) pH 7.5 (enzymatic activity)” value (“KLK7 IC50” below) with rhKLK7 was 2.4 nM. Also, the EC50 in assay [3] is 0.14 nM; in assay [4], 0.17 nM; in assay [5] it was 0.1 nM; in assay [6] it was 0.17 nM; in assay [7] it was 0.16 nM. Further, the “KLK5 IC50 nM pH 5.5 (enzymatic activity)” value in the assay with KLK5 was 0.9 nM. Also, in the assay with KLK5, the “KLK5 IC50 nM pH 7.5 (enzymatic activity)” value came to 1.1 nM.

B2: Spink9-30.Fc (SEQ ID NO: 55) (Fc fusion)
chain: B1 chain with E24V, L25S, Y26W, G43K
notes: as for B1
B2: the Kd was 229 nM in assay [2] and 0.0909 nM in [8]. Also, in the assay with rhKLK14, the “KLK14, percent inhibition at 316 nM SPINK9 polypeptide, pH 8.0” value (shortened to “KLK14, percent inhibition”) came to 0%. The “KLK7 IC50” value with rhKLK7 was found to be 10.8 nM. The EC50 is 0.1 nM in [3]; 0.13 nM in [4]; 0.08 nM in assay [5]; 0.1 nM in assay [6]; 0.1 nM in [7]. Moreover, the “KLK5 IC50 nM pH 5.5 (enzymatic activity)” value with KLK5 is 2.4 nM. Also, the “KLK5 IC50 nM pH 7.5 (enzymatic activity)” value with KLK5 was found to be 2.2 nM.

B3: SPINK9-112.2K62G.Fc (SEQ ID NO: 76) (Fc fusion)
chain: B1 chain with M104Y, S106T, T108E, L280M, S286N
notes: as for B1
In [2], B3 gave a Kd of 189 nM. For the same molecule, the EC50 in assay [9] worked out at 0.059 nM; in assay [10], 0.11 nM; in [11] it was 0.065 nM; in assay [12], 0.06 nM; in assay [13], 0.08 nM.

B4: Spink9-236.Fc (SEQ ID NO: 60) (Fc fusion)
chain: B1 chain with E24Q, Y26M, G43K
notes: as for B1
In the case of B4, the Kd was 231 nM in assay [2] and 0.0291 nM in assay [8]. Moreover, the “KLK14, percent inhibition” value with rhKLK14 was found to be 0%. Also, the “KLK7 IC50” value with rhKLK7 stood at 43.6 nM. Also, the EC50 in assay [3] amounted to 0.08 nM; in [4], 0.11 nM; in [5], 0.05 nM; in [6] it was 0.1 nM; in [7] it was 0.12 nM. Further, in the assay with KLK5, the “KLK5 IC50 nM pH 5.5 (enzymatic activity)” value is 3.5 nM. The “KLK5 IC50 nM pH 7.5 (enzymatic activity)” value in the assay with KLK5 stood at 1.5 nM.

B5: Spink9-186.Fc (SEQ ID NO: 58) (Fc fusion)
chain: B1 chain with E22A, E24L, L25I, R29K, G43K
notes: as for B1
In the case of B5, the Kd came out at 232 nM in assay [2] and 0.0189 nM in assay [8]. In addition, in the assay with rhKLK14, the “KLK14, percent inhibition” value is 0%. The “KLK7 IC50” value with rhKLK7 came to 8.3 nM. Besides, the EC50 in assay [3] was 0.16 nM; in assay [4], 0.29 nM; in assay [5] it was 0.09 nM; in [6], 0.12 nM; in [7], 0.21 nM. Moreover, the “KLK5 IC50 nM pH 5.5 (enzymatic activity)” value with KLK5 was 8.3 nM. The “KLK5 IC50 nM pH 7.5 (enzymatic activity)” value in the assay with KLK5 was determined as 1.9 nM.

B6: Spink9-183.Fc (SEQ ID NO: 57) (Fc fusion)
chain: B1 chain with E22Q, E24Q, L25A, E30D, G43K
notes: as for B1
In the case of B6, the equilibrium dissociation constant (Kd) was 222 nM in assay [2] and 0.0216 nM in assay [8]. In the assay with rhKLK14, the “KLK14, percent inhibition” value was 0%. Besides, the “KLK7 IC50” value in the assay with rhKLK7 came to 5.4 nM. The EC50 turned out to be 0.09 nM in assay [3]; 0.1 nM in [4]; 0.07 nM in [5]; 0.11 nM in [6]; 0.12 nM in assay [7]. For the same molecule, in the assay with KLK5, the “KLK5 IC50 nM pH 5.5 (enzymatic activity)” value was determined as 3 nM. In addition, in the assay with KLK5, the “KLK5 IC50 nM pH 7.5 (enzymatic activity)” value is 1.4 nM.

B7: Spink9 WT (Fc fusion)
chain: IECAKQTKQMVDCSHYKKLPPGQQRFCHHMYDPICGSDGKTYKNDCFFCSKVKKTDGTLKFVHFGKC
notes: not shown: The C-terminal IgG Fc fragment of the wild-type fusion
Turning to B7, the Kd in [8] turned out to be 99 nM.
